What all share (experiment): cell_activity
The test system of series [1] is Rec82. The following applies: HEK293T inversion; background 5.03.
The test system of series [2] is Rec83. The following applies: HEK293T inversion; background 5.425.
Series [3] concerns the target T1, Rec142 (UniProt A0A0J6VB22).
T1 sequence: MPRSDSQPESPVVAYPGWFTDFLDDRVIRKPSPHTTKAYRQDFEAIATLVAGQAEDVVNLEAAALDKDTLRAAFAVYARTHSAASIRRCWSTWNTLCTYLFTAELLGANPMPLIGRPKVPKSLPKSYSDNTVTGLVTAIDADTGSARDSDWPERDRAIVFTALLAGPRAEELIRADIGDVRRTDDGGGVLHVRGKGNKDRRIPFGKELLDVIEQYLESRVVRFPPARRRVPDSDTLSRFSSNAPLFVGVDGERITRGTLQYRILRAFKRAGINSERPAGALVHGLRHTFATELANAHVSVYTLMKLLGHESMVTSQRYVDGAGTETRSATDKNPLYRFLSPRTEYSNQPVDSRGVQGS
The following applies: HEK293T inversion; background 4.4.

Series [4] has as its system T2, Rec31 WP_046103089.1 (Pantoea anthophila).
T2 sequence: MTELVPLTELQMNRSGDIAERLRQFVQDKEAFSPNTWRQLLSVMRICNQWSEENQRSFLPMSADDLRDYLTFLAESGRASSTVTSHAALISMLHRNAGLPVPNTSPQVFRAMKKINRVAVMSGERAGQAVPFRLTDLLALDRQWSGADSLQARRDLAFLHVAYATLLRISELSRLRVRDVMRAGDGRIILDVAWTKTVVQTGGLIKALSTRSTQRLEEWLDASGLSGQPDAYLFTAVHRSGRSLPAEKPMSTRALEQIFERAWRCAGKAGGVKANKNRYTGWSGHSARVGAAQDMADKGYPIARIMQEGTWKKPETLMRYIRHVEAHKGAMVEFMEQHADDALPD
To be noted: HEK293T inversion; background 1.305.

The test system of series [5] is T3, Rec35 WP_134161939.1 (Pantoea allii).
T3 sequence: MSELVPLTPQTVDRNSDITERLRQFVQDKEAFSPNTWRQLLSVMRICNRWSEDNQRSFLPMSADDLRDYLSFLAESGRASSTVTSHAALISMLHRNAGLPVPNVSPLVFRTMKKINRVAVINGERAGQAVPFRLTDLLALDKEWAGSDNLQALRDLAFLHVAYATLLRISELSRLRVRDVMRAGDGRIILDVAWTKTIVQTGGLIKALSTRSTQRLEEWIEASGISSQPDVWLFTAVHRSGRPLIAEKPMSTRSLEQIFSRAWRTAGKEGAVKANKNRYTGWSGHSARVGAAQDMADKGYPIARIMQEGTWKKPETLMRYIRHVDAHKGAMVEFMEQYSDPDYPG
The following applies: HEK293T inversion; background 6.6.

The test system of series [6] is T4, Rec32 WP_069027120.1 (Pantoea agglomerans).
T4 sequence: T3 sequence with Q10L, R49C, E75Q, V231A, L244Q
The following applies: HEK293T inversion; background 6.6.

The subject of series [7] is T5, Rec30 WP_022624268.1 (Pantoea sp.).
T5 sequence: T3 sequence with Q10L, G98E, T135S, A145S, T210A, I225L, V231A, S254A, S339G
To be noted: HEK293T inversion; background 1.305.

The subject of series [8] is T6, Rec37 WP_128085508.1 (Pantoea deleyi).
T6 sequence: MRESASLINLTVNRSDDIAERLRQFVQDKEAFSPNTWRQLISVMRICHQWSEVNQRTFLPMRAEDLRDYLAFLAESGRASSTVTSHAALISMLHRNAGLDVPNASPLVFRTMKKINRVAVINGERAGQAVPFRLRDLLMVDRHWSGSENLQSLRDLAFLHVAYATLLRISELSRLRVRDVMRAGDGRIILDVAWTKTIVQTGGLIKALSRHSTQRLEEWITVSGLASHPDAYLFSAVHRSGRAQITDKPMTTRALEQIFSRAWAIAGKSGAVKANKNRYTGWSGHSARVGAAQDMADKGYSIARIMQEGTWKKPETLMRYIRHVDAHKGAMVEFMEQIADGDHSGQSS
The following applies: HEK293T inversion; background 6.6.

In series [9] the test system is T7, Rec38 WP_115764642.1 (Pantoea agglomerans).
T7 sequence: T3 sequence with Q10L, T11M, D148E, A152S, V231A
To be noted: HEK293T inversion; background 6.6.

The test system of series [10] is T8, Rec36 WP_111534863.1 (Pantoea sp.).
T8 sequence: T3 sequence with Q10L, T135S, K142E, A145S, T210A, I225L, V231A, S254A, S339G, G345D
The following applies: HEK293T inversion; background 6.6.

Series [11] deals with T9, Rec39 WP_111138305.1 (Pantoea sp. ARC607).
T9 sequence: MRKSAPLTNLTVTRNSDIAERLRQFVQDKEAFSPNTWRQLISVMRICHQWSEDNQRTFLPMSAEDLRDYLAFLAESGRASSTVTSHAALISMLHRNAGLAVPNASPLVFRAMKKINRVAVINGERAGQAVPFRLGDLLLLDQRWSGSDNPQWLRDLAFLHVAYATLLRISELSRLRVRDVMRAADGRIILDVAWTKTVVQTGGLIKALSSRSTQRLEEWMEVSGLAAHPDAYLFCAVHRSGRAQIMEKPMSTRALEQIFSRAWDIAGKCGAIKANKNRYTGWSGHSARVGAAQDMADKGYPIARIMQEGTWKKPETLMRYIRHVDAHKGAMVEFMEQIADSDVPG
The following applies: HEK293T inversion; background 6.6.

The test system of series [12] is T10, Rec33 WP_010671927.1 (Pantoea sp.).
T10 sequence: T3 sequence with Q10L, T135S, A145S, T210A, I225L, V231A, S254A, S339G
The following applies: HEK293T inversion; background 6.6.

Series [13] deals with T11, Rec34 WP_109653747.1 (Pantoea agglomerans).
T11 sequence: T3 sequence with Q10L, V231A
The following applies: HEK293T inversion; background 6.6.

The test system of series [14] is T12, Rec19 WP_058958135.1.
T12 sequence: T2 sequence with T135S, D341G, A342T
The following applies: HEK293T inversion; background 0.0065.

Series [15] relates to T13, Rec20 WP_090967054.1 (Pantoea sp. OV426).
T13 sequence: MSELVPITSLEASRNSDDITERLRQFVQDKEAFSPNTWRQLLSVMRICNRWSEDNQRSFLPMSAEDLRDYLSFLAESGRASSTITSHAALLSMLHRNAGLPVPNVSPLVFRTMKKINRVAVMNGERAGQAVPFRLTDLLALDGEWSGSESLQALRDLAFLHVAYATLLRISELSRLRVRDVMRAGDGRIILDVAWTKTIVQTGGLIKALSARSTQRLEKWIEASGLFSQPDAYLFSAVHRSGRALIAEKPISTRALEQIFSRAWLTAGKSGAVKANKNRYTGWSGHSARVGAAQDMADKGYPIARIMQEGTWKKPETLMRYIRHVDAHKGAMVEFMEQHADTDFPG
To be noted: HEK293T inversion; background 4.93.

Series [16] concerns T14, Rec29 WP_089415106.1 (Pantoea agglomerans).
T14 sequence: T3 sequence with Q10L, T135S, K142E, A145S, T210A, I225L, V231A, S254A, S339G
The following applies: HEK293T inversion; background 1.305.

Substitutions are numbered along the chain they refer to.

With “TGTGACTCCAGANNNNNNNNNTCTGGAGTCATA (double strand) [Rec82-83 natural site]”, the figures for the activity in series [1] and in series [2] were 59 % GFP+ and 65.2 % GFP+, respectively.
As to “CCGTCATGGATANNNNNNNNTATCCATGAAGC (double strand) [Rec142 natural site]”, the activity in series [3] was determined as 20.2 % GFP+.
As for “TGACTTCGTATANNNNNNNNTATACGAAGTCA (double strand) [Rec30-39 natural site]”, the activity came out at 21.3 % GFP+ in series [4]; 52 % GFP+ in series [5]; 60 % GFP+ in series [6]; 32.1 % GFP+ in series [7]; 40 % GFP+ in series [8]; 44.5 % GFP+ in series [9]. For the same sequence, the activity turned out to be 44.2 % GFP+ in series [10], 42 % GFP+ in series [11], 51 % GFP+ in [12] and 50.6 % GFP+ in series [13].
As for “TGACTTCGTATANNNNNNNNTATACGAAGCCA (double strand) [Rec19-20 natural site]”, the activity is 63.6 % GFP+ in [14] and 70.7 % GFP+ in series [15].
In [16], “ATGACTTCGTATANNNNNNNNTATACGAAGTCAT (double strand) [Rec29 natural site]” showed an activity of 36.9 % GFP+.
